Assay results as given in paper PMC12088426, “Activity and structure of human (d)CTP deaminase CDADC1” (Proceedings of the National Academy of Sciences of the …, 2025).
Where “and” joins values, the source holds several entries; their conditions need not be identical. Equal values may be shown once. Blank lines part the entries; values can stand above or below the molecule they belong to.

How the values were obtained:
CDADC1 (NYD-SP15) = molecular target: T1, CDADC1 (NYD-SP15) (Homo sapiens, UniProt Q9BWV3, E400A); test: cryo-EM structure of complex; assay type: binding; details: hexamer, catalytically inactive variant
T1 construct: codon-optimized gene, E. coli BL21-CodonPlus(DE3)-RIL; homotrimer / hexamer (dimer of trimers), hexamer is the active form
T1 sequence (Q9BWV3 1-514 E400A): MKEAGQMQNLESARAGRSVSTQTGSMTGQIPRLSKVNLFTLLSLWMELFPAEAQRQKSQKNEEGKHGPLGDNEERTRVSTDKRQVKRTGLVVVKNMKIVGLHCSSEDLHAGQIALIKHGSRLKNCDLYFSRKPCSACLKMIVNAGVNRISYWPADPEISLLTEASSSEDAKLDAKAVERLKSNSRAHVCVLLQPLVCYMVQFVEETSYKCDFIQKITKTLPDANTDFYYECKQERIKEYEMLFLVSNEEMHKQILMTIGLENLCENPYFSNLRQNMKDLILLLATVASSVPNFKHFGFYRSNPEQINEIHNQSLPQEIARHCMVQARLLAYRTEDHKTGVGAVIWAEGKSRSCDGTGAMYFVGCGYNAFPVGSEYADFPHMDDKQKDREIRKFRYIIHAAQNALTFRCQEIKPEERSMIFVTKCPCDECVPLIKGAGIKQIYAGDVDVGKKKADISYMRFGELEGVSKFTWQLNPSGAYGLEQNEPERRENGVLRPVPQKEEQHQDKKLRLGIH

[1] = substrate: Nc1ccn([C@@H]2O[C@H](COP(=O)(O)OP(=O)(O)OP(=O)(O)O)[C@@H](O)[C@H]2O)c(=O)n1; test: fluorescent ammonia detection, initial velocities, allosteric sigmoidal fit; assay type: biochemical, Homo sapiens; details: Low Salt Reaction Buffer; 0.3 uM CDADC1 (monomer); Hill coefficient 1.6
[2] = substrate: Nc1ccn([C@H]2C[C@H](O)[C@@H](COP(=O)(O)O)O2)c(=O)n1; test: as above; assay type: biochemical, Homo sapiens; details: Low Salt Reaction Buffer; 0.3 uM CDADC1 (monomer); Hill coefficient 1.8
[3] = substrate: Nc1ccn([C@H]2C[C@H](O)[C@@H](COP(=O)(O)OP(=O)(O)OP(=O)(O)O)O2)c(=O)n1; test: as above; assay type: biochemical, Homo sapiens; details: Low Salt Reaction Buffer; 0.2 uM CDADC1 (monomer); Hill coefficient 1.22
[4] = molecular target: the molecule itself; test: cryo-EM structure; single-particle cryo-EM of CDADC1 E400A alone, with dCTP and with 5-methyl-dCTP; C3 (trimer) or D3 (dimer of trimers) symmetry imposed; maps 2.4 to 3.0 A
[5] = molecular target: the molecule itself; test: mass photometry; Refeyn TwoMP; CDADC1 at ~0.06 uM (monomer), room temperature, 10 min, without a ligand or with 1 mM dCTP (dCTP stabilised against dissociation); hexamers dissociated to trimers and monomers over time; hexamer = dimer of trimers

cryo-EM structure of complex (CDADC1 (NYD-SP15); CTD active site, less clear map than dCTP): a hexamer with bound 5mdCTP (PDB: 9HFT)
Molecule: Cc1cn([C@H]2C[C@H](O)[C@@H](COP(=O)(O)OP(=O)(O)OP(=O)(O)O)O2)c(=O)nc1N [5mdCTP]

cryo-EM structure of complex (CDADC1 (NYD-SP15); one dCTP per protomer in CTD active site, N4 coordinates Zn2+): a hexamer with bound dCTP (PDB: 9HFS)
Molecule: Nc1ccn([C@H]2C[C@H](O)[C@@H](COP(=O)(O)OP(=O)(O)OP(=O)(O)O)O2)c(=O)n1 [dCTP]

B1: CDADC1 (NYD-SP15) (Homo sapiens) (protein)
chain: MKEAGQMQNLESARAGRSVSTQTGSMTGQIPRLSKVNLFTLLSLWMELFPAEAQRQKSQKNEEGKHGPLGDNEERTRVSTDKRQVKRTGLVVVKNMKIVGLHCSSEDLHAGQIALIKHGSRLKNCDLYFSRKPCSACLKMIVNAGVNRISYWPADPEISLLTEASSSEDAKLDAKAVERLKSNSRAHVCVLLQPLVCYMVQFVEETSYKCDFIQKITKTLPDANTDFYYECKQERIKEYEMLFLVSNEEMHKQILMTIGLENLCENPYFSNLRQNMKDLILLLATVASSVPNFKHFGFYRSNPEQINEIHNQSLPQEIARHCMVQARLLAYRTEDHKTGVGAVIWAEGKSRSCDGTGAMYFVGCGYNAFPVGSEYADFPHMDDKQKDREIRKFRYIIHAEQNALTFRCQEIKPEERSMIFVTKCPCDECVPLIKGAGIKQIYAGDVDVGKKKADISYMRFGELEGVSKFTWQLNPSGAYGLEQNEPERRENGVLRPVPQKEEQHQDKKLRLGIH
notes: codon-optimized gene, E. coli BL21-CodonPlus(DE3)-RIL; homotrimer / hexamer (dimer of trimers), hexamer is the active form
K0.5 [1]: 0.7 mM
kcat [1]: 5.0 s⁻¹
K0.5 [2]: 5 mM
kcat [2]: 8.5 s⁻¹
K0.5 [3]: 0.2 mM
kcat [3]: 3.5 s⁻¹

B2: human CDADC1 E400A variant (enzyme, UniProt Q9BWV3 1-514, looked up)
chain: MKEAGQMQNLESARAGRSVSTQTGSMTGQIPRLSKVNLFTLLSLWMELFPAEAQRQKSQKNEEGKHGPLGDNEERTRVSTDKRQVKRTGLVVVKNMKIVGLHCSSEDLHAGQIALIKHGSRLKNCDLYFSRKPCSACLKMIVNAGVNRISYWPADPEISLLTEASSSEDAKLDAKAVERLKSNSRAHVCVLLQPLVCYMVQFVEETSYKCDFIQKITKTLPDANTDFYYECKQERIKEYEMLFLVSNEEMHKQILMTIGLENLCENPYFSNLRQNMKDLILLLATVASSVPNFKHFGFYRSNPEQINEIHNQSLPQEIARHCMVQARLLAYRTEDHKTGVGAVIWAEGKSRSCDGTGAMYFVGCGYNAFPVGSEYADFPHMDDKQKDREIRKFRYIIHAAQNALTFRCQEIKPEERSMIFVTKCPCDECVPLIKGAGIKQIYAGDVDVGKKKADISYMRFGELEGVSKFTWQLNPSGAYGLEQNEPERRENGVLRPVPQKEEQHQDKKLRLGIH
notes: CDADC1 (NYD-SP15), human, 514 residues, catalytic glutamate E400 changed to alanine; expressed from a codon-optimized gene; This variant was used for all cryo-EM datasets; source: E. coli BL21-CodonPlus (DE3)-RIL, purified (His-trap, Heparin HP, Superdex 200 Increase)
stoichiometry N [4]: 3 and 6

B3: human CDADC1 (enzyme, UniProt Q9BWV3 1-514, looked up)
chain: MKEAGQMQNLESARAGRSVSTQTGSMTGQIPRLSKVNLFTLLSLWMELFPAEAQRQKSQKNEEGKHGPLGDNEERTRVSTDKRQVKRTGLVVVKNMKIVGLHCSSEDLHAGQIALIKHGSRLKNCDLYFSRKPCSACLKMIVNAGVNRISYWPADPEISLLTEASSSEDAKLDAKAVERLKSNSRAHVCVLLQPLVCYMVQFVEETSYKCDFIQKITKTLPDANTDFYYECKQERIKEYEMLFLVSNEEMHKQILMTIGLENLCENPYFSNLRQNMKDLILLLATVASSVPNFKHFGFYRSNPEQINEIHNQSLPQEIARHCMVQARLLAYRTEDHKTGVGAVIWAEGKSRSCDGTGAMYFVGCGYNAFPVGSEYADFPHMDDKQKDREIRKFRYIIHAEQNALTFRCQEIKPEERSMIFVTKCPCDECVPLIKGAGIKQIYAGDVDVGKKKADISYMRFGELEGVSKFTWQLNPSGAYGLEQNEPERRENGVLRPVPQKEEQHQDKKLRLGIH
notes: CDADC1 (NYD-SP15), human, 514 residues, expressed from a codon-optimized gene; Complete methods are in the SI Appendix; also called NYD-SP15; source: E. coli BL21-CodonPlus (DE3)-RIL, purified (His-trap, Heparin HP, Superdex 200 Increase)
stoichiometry N [5]: 3 and 6
